Data reported in US5753483A, “Purified homogeneous UDP-GlcNAc (GalNAc) pyrophosphorylase” (priority 1995, dated 1998).

Tests used:
[1] = tested on: CC(=O)NC1C(OP(=O)(O)OP(=O)(O)OCC2OC(n3ccc(=O)[nH]c3=O)C(O)C2O)OC(CO)C(O)C1O; assay: purified protein, by the assay type; conditions: other: reverse direction, PP = 1 mM; 37.0 °C
[2] = tested on: CC(=O)N[C@H]1[C@@H](OP(=O)(O)OP(=O)(O)OC[C@H]2O[C@@H](n3ccc(=O)[nH]c3=O)[C@H](O)[C@@H]2O)O[C@H](CO)[C@H](O)[C@@H]1O; assay: purified protein, by the assay type; conditions: other: reverse direction, PP = 1 mM; 37.0 °C

Chain of Pyrophosphorylase (Sus scrofa) (chain, as listed by the source): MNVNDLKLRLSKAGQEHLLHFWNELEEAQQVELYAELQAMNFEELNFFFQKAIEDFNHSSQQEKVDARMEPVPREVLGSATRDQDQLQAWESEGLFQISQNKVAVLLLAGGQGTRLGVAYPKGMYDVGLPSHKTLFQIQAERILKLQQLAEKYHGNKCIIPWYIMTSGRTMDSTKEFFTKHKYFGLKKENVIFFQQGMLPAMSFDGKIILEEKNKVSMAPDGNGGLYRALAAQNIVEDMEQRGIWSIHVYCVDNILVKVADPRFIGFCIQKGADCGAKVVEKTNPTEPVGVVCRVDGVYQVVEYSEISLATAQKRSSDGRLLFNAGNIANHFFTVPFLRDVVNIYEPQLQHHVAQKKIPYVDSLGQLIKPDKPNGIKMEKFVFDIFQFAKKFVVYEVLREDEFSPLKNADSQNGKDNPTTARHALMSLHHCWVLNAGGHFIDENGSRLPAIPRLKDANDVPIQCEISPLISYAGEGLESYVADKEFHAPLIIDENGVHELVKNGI

Pyrophosphorylase (Sus scrofa)
Km [1]: 45 µM | Km [2]: 200 µM
